Substitutions are numbered along the chain they refer to.

This assay deals with T1, labeled peptide-MHC (HLA-A*02:01) tetramer (…-HLA-A*02:01 tetramer) (human).
T1 construct: Labeled tetramer used for flow cytometry staining; also called pMHC; pMHC tetramer
Description: tetramer staining of sorted T cell clones, flow cytometry. In general terms: A flow cytometer gives signals particle by particle.

B1: nwTCR-2383 (TCR, V domains shown)
V domain 1: GIQVEQSPPDLILQEGANSTLRCNFSDSVNNLQWFHQNPWGQLINLFYIPSGTKQNGRLSATTVATERYSLLYISSSQTTDSGVYFCAVMPSGTYKYIFGTGTRLKVLA
V domain 2: EAQVTQNPRYLITVTGKKLTVTCSQNMNHEYMSWYRQDPGLGLRQIYYSMNVEVTDKGDVPEGYKVSRKEKRNFPLILESPSPNQTSLYFCASSPSSGYNEQFFGPGTRLTVLE
notes: TCR on T cells
For B1, the binding result is given as “binds”.

B2: nwTCR-2970 (TCR, V domains shown)
V domain 1: QQPVQSPQAVILREGEDAVINCSSSKALYSVHWYRQKHGEAPVFLMILLKGGEQKGHDKISASFNEKKQQSSLYLTASQLSYSGTYFCGTEFRNDYKLSFGAGTTVTVRA
V domain 2: B1 V domain 2 with S96G, S97T, Y99G, N100Y, E101G, Q102Y, F103T, P106S, L113V
notes: TCR on T cells
In the case of B2, the binding result is reported as “binds”.

B3: nwTCR-2720 (TCR, V domains shown)
V domain 1: SQQGEEDPQALSIQEGENATMNCSYKTSINNLQWYRQNSGRGLVHLILIRSNEREKHSGRLRVTLDTSKKSSSLLITASRAADTASYFCATDLSGAGSYQLTFGKGTKLSVIP
V domain 2: B1 V domain 2 with P95L, S96G, S97T, Y99F, N100G, Q102L, P106E, T108S
notes: TCR on T cells
As for B3, the binding result is “binds”.

B4: nwTCR-1906 (TCR, V domains shown)
V domain 1: RKEVEQDPGPFNVPEGATVAFNCTYSNSASQSFFWYRQDCRKEPKLLMSVYSSGNEDGRFTAQLNRASQYISLLIRDSKLSDSATYLCVVTQAGTALIFGKGTTLSVSS
V domain 2: not shown
notes: TCR on T cells
With B4, the binding result is recorded as “binds”.

B5: nwTCR-2523 (TCR, V domains shown)
V domain 1: RKEVEQDPGPFNVPEGATVAFNCTYSNSASQSFFWYRQDCRKEPKLLMSVYSSGNEDGRFTAQLNRASQYISLLIRDSKLSDSATYLCVVNRGSQGNLIFGKGTKLSVKP
V domain 2: DAGVTQSPTHLIKTRGQQVTLRCSPKSGHDTVSWYQQALGQGPQFIFQYYEEEERQRGNFPDRFSGHQFPNYSSELNVNALLLGDSALYLCASSLVDYEQYFGPGTRLTVTE
notes: TCR on T cells
As for B5, the binding result is reported as “binds”.

B6: nwTCR-2228 (TCR, V domains shown)
V domain 1: QKEVEQNSGPLSVPEGAIASLNCTYSDRGSQSFFWYRQYSGKSPELIMFIYSNGDKEDGRFTAQLNKASQYVSLLIRDSQPSDSATYLCAGHTGNQFYFGTGTSLTVIP
V domain 2: EPEVTQTPSHQVTQMGQEVILRCVPISNHLYFYWYRQILGQKVEFLVSFYNNEISEKSEIFDDQFSVERPDGSNFTLKIRSTKLEDSAMYFCASREDGYEQYFGPGTRLTVTE
notes: TCR on T cells
With B6, the binding result is “binds”.

B7: nwTCR-2286 (TCR, V domains shown)
V domain 1: GQQLNQSPQSMFIQEGEDVSMNCTSSSIFNTWLWYKQDPGEGPVLLIALYKAGELTSNGRLTAQFGITRKDSFLNISASIPSDVGIYFCAGPEDDKIIFGKGTRLHILP
V domain 2: DSGVTQTPKHLITATGQRVTLRCSPRSGDLSVYWYQQSLDQGLQFLIQYYNGEERAKGNILERFSAQQFPDLHSELNLSSLELGDSALYFCASSPWLQGGNEQFFGPGTRLTVLE
notes: TCR on T cells
For the molecule B7, the binding result is given as “binds”.

B8: nwTCR-2718 (TCR, V domains shown)
V domain 1: GQQLNQSPQSMFIQEGEDVSMNCTSSSIFNTWLWYKQDPGEGPVLLIALYKAGELTSNGRLTAQFGITRKDSFLNISASIPSDVGIYFCAGFSQGGSEKLVFGKGTKLTVNP
V domain 2: B7 V domain 2 with L97T, Q98A, E102T, Q103I, F104Y, P107E, T109S, R110W, L114V
notes: TCR on T cells
In the case of B8, the binding result is on record as “binds”.

B9: nwTCR-2418 (TCR, V domains shown)
V domain 1: DQQVKQNSPSLSVQEGRISILNCDYTNSMFDYFLWYKKYPAEGPTFLISISSIKDKNEDGRFTVFLNKSAKHLSLHIVPSQPGDSAVYFCAASGVRGQNFVFGPGTRLSVLP
V domain 2: B7 V domain 2 with Q98A, N101R, F104Y, L114T
notes: TCR on T cells
B9: the binding result is “binds”.

B10: nwTCR-2316 (TCR, V domains shown)
V domain 1: TQLLEQSPQFLSIQEGENLTVYCNSSSVFSSLQWYRQEPGEGPVLLVTVVTGGEVKKLKRLTFQFGDARKDSSLHITAAQPGDTGLYLCAGVDNYGQNFVFGPGTRLSVLP
V domain 2: DAGVIQSPRHEVTEMGQEVTLRCKPISGHNSLFWYRQTMMRGLELLIYFNNNVPIDDSGMPEDRFSAKMPNASFSTLKIQPSEPRDSAVYFCASSIAALGFGELFFGEGSRLTVLE
notes: TCR on T cells
As for B10, the binding result is reported as “binds”.

B11: nwTCR-2916 (TCR, V domains shown)
V domain 1: GQQLNQSPQSMFIQEGEDVSMNCTSSSIFNTWLWYKQDPGEGPVLLIALYKAGELTSNGRLTAQFGITRKDSFLNISASIPSDVGIYFCAGQDDGGSQGNLIFGKGTKLSVKP
V domain 2: DSGVTQTPKHLITATGQRVTLRCSPRSGDLSVYWYQQSLDQGLQFLIQYYNGEERAKGNILERFSAQQFPDLHSELNLSSLELGDSALYFCASSPWTSGGDGELFFGEGSRLTVLE
notes: TCR on T cells
Turning to B11, the binding result is “binds”.

B12: nwTCR-3095 (TCR, V domains shown)
V domain 1: DQQVKQNSPSLSVQEGRISILNCDYTNSMFDYFLWYKKYPAEGPTFLISISSIKDKNEDGRFTVFLNKSAKHLSLHIVPSQPGDSAVYFCAAFASDSNYQLIWGAGTKLIIKP
V domain 2: DTAVSQTPKYLVTQMGNDKSIKCEQNLGHDTMYWYKQDSKKFLKIMFSYNNKELIINETVPNRFSPKSPDKAHLNLHINSLELGDSAVYFCASSPWTSGGNGELFFGEGSRLTVLE
notes: TCR on T cells
As to B12, the binding result was “binds”.

B13: nwTCR-3028 (TCR, V domains shown)
V domain 1: SQQGEEDPQALSIQEGENATMNCSYKTSINNLQWYRQNSGRGLVHLILIRSNEREKHSGRLRVTLDTSKKSSSLLITASRAADTASYFCATDVKSSYKLIFGSGTRLLVRP
V domain 2: AAGVIQSPRHLIKEKRETATLKCYPIPRHDTVYWYQQGPGQDPQFLISFYEKMQSDKGSIPDRFSAQQFSDYHSELNMSSLELGDSALYFCASSLGLLGNEQFFGPGTRLTVLE
notes: TCR on T cells
With B13, the binding result was “binds”.

B14: nwTCR-2583 (TCR, V domains shown)
V domain 1: GQSLEQPSEVTAVEGAIVQINCTYQTSGFYGLSWYQQHDGGAPTFLSYNALDGLEETGRFSSFLSRSDSYGYLLLQELQMKDSASYFCALGTEDKIIFGKGTRLHILP
V domain 2: EAQVTQNPRYLITVTGKKLTVTCSQNMNHEYMSWYRQDPGLGLRQIYYSMNVEVTDKGDVPEGYKVSRKEKRNFPLILESPSPNQTSLYFCASRISLGANYGYTFGSGTRLTVVE
notes: TCR on T cells
Take B14: the binding result is reported as “binds”.

B15: nwTCR-2555 (TCR, V domains shown)
V domain 1: AQSVSQHNHHVILSEAASLELGCNYSYGGTVNLFWYVQYPGQHLQLLLKYFSGDPLVKGIKGFEAEFIKSKFSFNLRKPSVQWSDTAEYFCAVKMDSSYKLIFGSGTRLLVRP
V domain 2: DGGITQSPKYLFRKEGQNVTLSCEQNLNHDAMYWYRQDPGQGLRLIYYSQIVNDFQKGDIAEGYSVSREKKESFPLTVTSAQKNPTAFYLCASLGLNYNEQFFGPGTRLTVLE
notes: TCR on T cells
Take B15: the binding result is on record as “binds”.

B16: nwTCR-2170 (TCR, V domains shown)
V domain 1: GQQLNQSPQSMFIQEGEDVSMNCTSSSIFNTWLWYKQDPGEGPVLLIALYKAGELTSNGRLTAQFGITRKDSFLNISASIPSDVGIYFCAGQASGTYKYIFGTGTRLKVLA
V domain 2: EAQVTQNPRYLITVTGKKLTVTCSQNMNHEYMSWYRQDPGLGLRQIYYSMNVEVTDKGDVPEGYKVSRKEKRNFPLILESPSPNQTSLYFCASSSGTSDEQYFGPGTRLTVTE
notes: TCR on T cells
B16: the binding result was “binds”.

B17: nwTCR-2793 (TCR, V domains shown)
V domain 1: QKEVEQNSGPLSVPEGAIASLNCTYSDRVSQSFFWYRQYSGKSPELIMSIYSNGDKEDGRFTAQLNKASQYVSLLIRDSQPSDSATYLCAVVSSNDYKLSFGAGTTVTVRA
V domain 2: B16 V domain 2 with S95P, S98I, D99G, Q101L, Y102F, P105E, T107S, T112L
notes: TCR on T cells
For the molecule B17, the binding result is reported as “binds”.

B18: nwTCR-2285 (TCR, V domains shown)
V domain 1: KNEVEQSPQNLTAQEGEFITINCSYSVGISALHWLQQHPGGGIVSLFMLSSGKKKHGRLIATINIQEKHSSLHITASHPRDSAVYICALNSDSNYQLIWGAGTKLIIKP
V domain 2: B16 V domain 2 with S93T, S95P, S98L, D99Y
notes: TCR on T cells
Consider B18, for which the binding result was “binds”.

B19: nwTCR-2719 (TCR, V domains shown)
V domain 1: B1 V domain 1 with M90L, P91A, S92P
V domain 2: B16 V domain 2 with S95W, T97S, S98G, D99Y
notes: TCR on T cells
For B19, the binding result was “binds”.

B20: nwTCR-2915 (TCR, V domains shown)
V domain 1: GESVGLHLPTLSVQEGDNSIINCAYSNSASDYFIWYKQESGKGPQFIIDIRSNMDKRQGQRVTVLLNKTVKHLSLQIAATQPGDSAVYFCAESYGQKLLFARGTMLKVDL
V domain 2: B16 V domain 2 with S95F, G96W, T97S, S98A, D99G, Q101L, Y102F, P105E, T107S, T112L
notes: TCR on T cells
For B20, the binding result is reported as “binds”.

B21: nwTCR-1953 (TCR, V domains shown)
V domain 1: DAKTTQPNSMESNEEEPVHLPCNHSTISGTDYIHWYRQLPSQGPEYVIHGLTSNVNNRMASLAIAEDRKSSTLILHRATLRDAAVYYCILRAGGSGDKLTFGTGTRLAVRP
V domain 2: DTEVTQTPKHLVMGMTNKKSLKCEQHMGHRAMYWYKQKAKKPPELMFVYSYEKLSINESVPSRFSPECPNSSLLNLHLHALQPEDSALYLCASSQDPFWGAGELFFGEGSRLTVLE
notes: TCR on T cells
In the case of B21, the binding result is given as “binds”.

B22: nwTCR-3125 (TCR, V domains shown)
V domain 1: QKEVEQNSGPLSVPEGAIASLNCTYSDRVSQSFFWYRQYSGKSPELIMSIYSNGDKEDGRFTAQLNKASQYVSLLIRDSQPSDSATYLCALVSGTYKYIFGTGTRLKVLA
V domain 2: DTAVSQTPKYLVTQMGNDKSIKCEQNLGHDTMYWYKQDSKKFLKIMFSYNNKELIINETVPNRFSPKSPDKAHLNLHINSLELGDSAVYFCASSPGLAYEQYFGPGTRLTVTE
notes: TCR on T cells
With B22, the binding result is listed as “binds”.

The values above are taken from patent publication EP4682162A1 (Neowise Biotechnology Co., Ltd., dated 2026).
